Test results: patent CN114437215A (SHANGHAI MAIJI BIOTECHNOLOGY CO LTD, dated 2022)

T1: 人CD38胞外段Flag标签蛋白 hCD38-ECD-Flag (human, UniProt P28907 43-300)
T1 construct: range 43-300; No linker between CD38 and the tag is stated; also called hCD38-Flag
T1 sequence: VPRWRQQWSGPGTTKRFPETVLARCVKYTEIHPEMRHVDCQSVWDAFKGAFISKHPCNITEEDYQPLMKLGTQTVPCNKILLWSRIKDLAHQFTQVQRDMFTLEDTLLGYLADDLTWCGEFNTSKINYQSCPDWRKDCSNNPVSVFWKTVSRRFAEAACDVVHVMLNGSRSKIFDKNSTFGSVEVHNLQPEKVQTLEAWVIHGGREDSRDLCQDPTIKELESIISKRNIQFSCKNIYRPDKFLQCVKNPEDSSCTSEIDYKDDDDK

T2: 食蟹猴CD38胞外段Flag标签蛋白 cyno-CD38-ECD-Flag (cynomolgus monkey, UniProt Q5VAN0 44-301)
T2 construct: range 44-301; No linker between CD38 and the tag is stated; also called cyno-CD38-Flag
T2 sequence: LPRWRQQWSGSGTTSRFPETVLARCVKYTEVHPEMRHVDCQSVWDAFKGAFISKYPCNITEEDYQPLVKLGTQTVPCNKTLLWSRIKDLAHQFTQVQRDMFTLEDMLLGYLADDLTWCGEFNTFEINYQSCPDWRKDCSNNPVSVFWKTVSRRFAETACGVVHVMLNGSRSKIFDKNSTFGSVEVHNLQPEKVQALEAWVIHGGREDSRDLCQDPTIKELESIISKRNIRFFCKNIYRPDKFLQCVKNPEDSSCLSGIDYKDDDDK

B1: 人源化抗人CD38单克隆抗体57H (antibody, human IgG1, kappa, V domains shown)
VH: EVQLVESGGGLVQPGGSLRLSCAASGFTFSSFGMHWVRQAPGKGLEWVAYIGGDSNIIYYADTVKGRFTISRDNSKNTLYLQMNSLRAEDTAVYYCAKSHDYTMDYWGQGTLVTVSS
VL: DIVMTQSPSSLAVSLGERVTITCKSSQSLLYSTNQKNYLAWFQQKPGQSPKLLIYWASTRESGVPDRFSGSGSGTDFTLTISSLQAEDVAVYYCQRYYNYPYTFGQGTKVEIKR
notes: also called 57号抗体的人源化抗体
B2: 人源化抗人CD38单克隆抗体145H (antibody, human IgG1, kappa, V domains shown)
VH: QVQLVQSGAEVKKPGASVKVSCKASGYTFTNYLIDWVRQAPGQGLEWIGLINPGSGSTKYNEKFKGRVTLTADKSTSTAYMELSSLRSEDTAVYYCAKTGTLPYWGQGTLVTVSS
VL: DIQMTQSPSSLSASVGDRVTITCKASQNVGTSVAWYQQKPGKAPKLLIYSTSYRSSGVPSRFSGSGSGTDFTLTISSLQPEDFATYYCQQYGSYPLTFGQGTKVEIKR
notes: also called 145号抗体的人源化抗体
B3: 人源化抗人CD38单克隆抗体116H (antibody, human IgG1, kappa, V domains shown)
VH: QVTLKESGPALVKPTQTLTLTCTLSGFSLSTSRMGVGWIRQPPGKGLEWLAHIWWDDDKRYNPALKSRLTISKDTSSNQVFLKIASVDKEDTATYYCGRIEVGRGAWFAYWGQGTLVTVSS
VL: EIVLTQSPATLSLSPGERVSVTCKASQDVVTTVAWYQQKPGQAPRTLIYSASYRYSGVPARFSGSGSGTDFTLTISSLEPEDFAVYYCQQYYTYPFTFGQGTKVEIKR
notes: also called 116号抗体的人源化抗体
B4: 人源化抗人CD38单克隆抗体105H (antibody, human IgG1, kappa, V domains shown)
VH: QVQLVQSGAEVKKPGASVKVSCKASGYTFTSYWMHWVRQAPGQGLEWIGHINPSSGYSEYSQKFKDRATLTADKSTSTAYMELSSLRSEDTAVYYCEIYYYVSRYVGDSWGQGTLVTVSS
VL: DIQMTQSPSSLSASVGDRVTITCRASQEISGYLSWLQQKPGKTIKRLIYAASTLDSGVPSRFSGSRSGSDFTLTISSLQPEDFATYYCLQYDSYPLTFGQGTKVEIKR
notes: Humanized IgG1; also called 105-Humanization; 105号抗体的人源化抗体

Legend:
[1] = target: T1, 人CD38胞外段Flag标签蛋白 hCD38-ECD-Flag; assay: SPR, Biacore T200; antibody captured on Protein A CM5 chip, hCD38-Flag as analyte
[2] = target: T2, 食蟹猴CD38胞外段Flag标签蛋白 cyno-CD38-ECD-Flag; assay: SPR, Biacore T200; antibody captured on Protein A CM5 chip, cyno-CD38-Flag as analyte

Row | Kd [1] [nM] | koff [1] [s⁻¹] | kon [1] [M⁻¹ s⁻¹] | Kd [2] [nM] | koff [2] [s⁻¹] | kon [2] [M⁻¹ s⁻¹] | Binder
1 | 0.382 | 0.000101 | 264000 | 1.68 | 9.2e-05 | 54900 | B1
2 | 3.22 | 0.00198 | 612000 | 40.2 | 0.00393 | 97800 | B2
3 | 0.065 | 9.53e-05 | 1.47e+06 | 0.405 | 0.000102 | 251000 | B3
4 | 32.8 | 0.000975 | 29800 | 3.4 | 0.000208 | 61100 | B4
